Publication PMC5312616, “A Cholecystokinin B Receptor-Specific DNA Aptamer for Targeting Pancreatic Ductal Adenocarcinoma”
Where two headings read alike, the source gives them in different places.

What was measured:
[1] = biological target: CCKBR (Homo sapiens) (UniProt P32239); conditions: cited from earlier work
[2] = biological target: T1, CCKBR N-terminal peptide BR5-21 (human, UniProt P32239 5-21); assay: not stated in material; Kd assay buffer and method not given in material; SELEX peptide-bead incubation 60 min at 37 C
T1 chain: KLNRSVQGTGPGPGASL

Sequence of CCKBR (Homo sapiens) (P32239 whole entry): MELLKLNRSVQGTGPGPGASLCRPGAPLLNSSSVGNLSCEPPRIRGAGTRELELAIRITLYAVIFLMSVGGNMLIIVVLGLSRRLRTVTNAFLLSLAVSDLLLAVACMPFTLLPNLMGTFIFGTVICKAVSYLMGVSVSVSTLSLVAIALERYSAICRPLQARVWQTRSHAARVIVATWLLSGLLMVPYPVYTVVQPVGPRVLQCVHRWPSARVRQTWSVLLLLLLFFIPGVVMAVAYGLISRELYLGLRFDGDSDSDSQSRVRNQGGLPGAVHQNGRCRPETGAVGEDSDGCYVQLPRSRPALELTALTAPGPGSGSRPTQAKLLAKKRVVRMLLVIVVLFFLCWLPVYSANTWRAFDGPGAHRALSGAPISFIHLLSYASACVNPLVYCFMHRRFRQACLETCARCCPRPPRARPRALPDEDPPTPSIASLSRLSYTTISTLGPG

## gastrin (from UniProt P01350)
[1]
  Kd: 1 nM

B1: AP1153 (66 nt) (ssDNA)
DNA: CATGGTGCAGGTGTGGCTGGGATTCATTTGCCGGTGCTGGTGCGTCCGCGGCCGCTAATCCTGTTC
[2]; Mfold-predicted folded structure
  Kd: 0.0155 nM

## CATGGTGCAGGTGTGGCTGGGATTCATTTGCCGGTGCTGGTGCGTCCGC (ssDNA) [AP1153 truncated (49 nt)]
[2]
  Kd: 0.206 nM
